Laboratory results published in publication PMC2199218 (The Journal of Cell Biology, 2002).
“And” between values parts separate entries of the source, which are not always exact repeats. Equal entries are not always repeated.

Assays:
[1] = target: integrin β1A cytoplasmic domain fused to the Gal4 DNA BD (human); experiment: two-hybrid
cross-linking = target: the molecule itself; experiment: cross-linking

integrin β1A cytoplasmic domain fused to the Gal4 DNA BD (human), sequence (P05556 21-798): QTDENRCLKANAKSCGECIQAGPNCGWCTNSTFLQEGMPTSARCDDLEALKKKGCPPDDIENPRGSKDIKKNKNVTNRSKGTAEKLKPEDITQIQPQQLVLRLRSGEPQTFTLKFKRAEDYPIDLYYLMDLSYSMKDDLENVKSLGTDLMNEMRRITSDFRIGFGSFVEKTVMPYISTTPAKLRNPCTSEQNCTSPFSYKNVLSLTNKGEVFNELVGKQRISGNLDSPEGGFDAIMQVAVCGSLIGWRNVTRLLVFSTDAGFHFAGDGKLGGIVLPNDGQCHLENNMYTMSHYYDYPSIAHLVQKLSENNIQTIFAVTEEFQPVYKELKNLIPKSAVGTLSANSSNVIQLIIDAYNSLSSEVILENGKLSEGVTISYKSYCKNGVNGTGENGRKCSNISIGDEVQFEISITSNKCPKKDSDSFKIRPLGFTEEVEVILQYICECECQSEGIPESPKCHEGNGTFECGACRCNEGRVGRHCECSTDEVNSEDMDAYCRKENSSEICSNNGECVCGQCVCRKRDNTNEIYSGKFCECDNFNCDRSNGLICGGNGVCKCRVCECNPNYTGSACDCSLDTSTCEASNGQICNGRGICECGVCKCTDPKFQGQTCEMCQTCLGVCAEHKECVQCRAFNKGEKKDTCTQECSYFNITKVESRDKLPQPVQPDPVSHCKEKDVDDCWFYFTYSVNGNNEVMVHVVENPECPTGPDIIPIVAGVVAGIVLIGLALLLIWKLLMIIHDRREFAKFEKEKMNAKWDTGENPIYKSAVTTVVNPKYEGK

Molecule: filamin-B_(var-1)(19–24), Gal4 AD fusion (domain or fragment)
- fold binding (β-galactosidase activity) against wild-type filamin-B(19–24) [1]: 2 fold and 3 fold

B1: NH2-terminal HA-tagged FLN-B(19–24) (domain or fragment, human, UniProt O75369-1 2009-2602, looked up)
chain: GRGLSEGRTFEMSDFIVDTRDAGYGGISLAVEGPSKVDIQTEDLEDGTCKVSYFPTVPGVYIVSTKFADEHVPGSPFTVKISGEGRVKESITRTSRAPSVATVGSICDLNLKIPEINSSDMSAHVTSPSGRVTEAEIVPMGKNSHCVRFVPQEMGVHTVSVKYRGQHVTGSPFQFTVGPLGEGGAHKVRAGGPGLERGEAGVPAEFSIWTREAGAGGLSIAVEGPSKAEITFDDHKNGSCGVSYIAQEPGNYEVSIKFNDEHIPESPYLVPVIAPSDDARRLTVMSLQESGLKVNQPASFAIRLNGAKGKIDAKVHSPSGAVEECHVSELEPDKYAVRFIPHENGVHTIDVKFNGSHVVGSPFKVRVGEPGQAGNPALVSAYGTGLEGGTTGIQSEFFINTTRAGPGTLSVTIEGPSKVKMDCQETPEGYKVMYTPMAPGNYLISVKYGGPNHIVGSPFKAKVTGQRLVSPGSANETSSILVESVTRSSTETCYSAIPKASSDASKVTSKGAGLSKAFVGQKSSFLVDCSKAGSNMLLIGVHGPTTPCEEVSMKHVGNQQYNVTYVVKERGDYVLAVKWGEEHIPGSPFHVTVP
- stoichiometry N (cross-linking): 2

B2: COOH-terminal GFP-tagged FLN-B(19–24) (domain or fragment, human, UniProt O75369-1 2009-2602, looked up)
chain: GRGLSEGRTFEMSDFIVDTRDAGYGGISLAVEGPSKVDIQTEDLEDGTCKVSYFPTVPGVYIVSTKFADEHVPGSPFTVKISGEGRVKESITRTSRAPSVATVGSICDLNLKIPEINSSDMSAHVTSPSGRVTEAEIVPMGKNSHCVRFVPQEMGVHTVSVKYRGQHVTGSPFQFTVGPLGEGGAHKVRAGGPGLERGEAGVPAEFSIWTREAGAGGLSIAVEGPSKAEITFDDHKNGSCGVSYIAQEPGNYEVSIKFNDEHIPESPYLVPVIAPSDDARRLTVMSLQESGLKVNQPASFAIRLNGAKGKIDAKVHSPSGAVEECHVSELEPDKYAVRFIPHENGVHTIDVKFNGSHVVGSPFKVRVGEPGQAGNPALVSAYGTGLEGGTTGIQSEFFINTTRAGPGTLSVTIEGPSKVKMDCQETPEGYKVMYTPMAPGNYLISVKYGGPNHIVGSPFKAKVTGQRLVSPGSANETSSILVESVTRSSTETCYSAIPKASSDASKVTSKGAGLSKAFVGQKSSFLVDCSKAGSNMLLIGVHGPTTPCEEVSMKHVGNQQYNVTYVVKERGDYVLAVKWGEEHIPGSPFHVTVP
- stoichiometry N (cross-linking): 2
